Starred links: 1 amine or outer side, 2 acyl side, 3 side chain; linkers in the order of their positions; H or OH if unused. Positions of bridges follow the written chain, without caps; N, C: chain ends. Non-standard residues stand in square brackets, D forms with d. Primed or numbered codes have the meaning given here. *: point of attachment. Af3(Hspy) = 3-amino-L-phenylalanine, ring amine acylated with 4-sulfamoyl-1H-pyrrole-2-carboxylic acid, NS(=O)(=O)c1c[nH]c(C(=O)Nc2cccc(C[C@H](N[*:1])C(=O)[*:2])c2)c1; Aph(Hsfu) = 4-amino-L-phenylalanine, ring amine acylated with 4-sulfamoylfuran-2-carboxylic acid, NS(=O)(=O)c1coc(C(=O)Nc2ccc(C[C@H](N[*:1])C(=O)[*:2])cc2)c1; Af3(PrHydr) = 3-amino-L-phenylalanine, ring amine acylated by 4-(hydroxycarbamoyl)butanoic acid, O=C(CCCC(=O)Nc1cccc(C[C@H](N[*:1])C(=O)[*:2])c1)NO; Ttds(4) = 1,13-diamino-4,7,10-trioxatridecan-succinamic acid spacer, O=C(CCC(=O)[*:2])NCCCOCCOCCOCCCN[*:1]; PPAc(3) = 4-carboxymethyl piperazine linker between DOTA and Gln1, O=C(CN1CCN([*:1])CC1)[*:2]; Phe(3-NHCO(CH2)3SO2NH2) = N[C@@H](Cc1cccc(NC(=O)CCCS(N)(=O)=O)c1)C(=O)O; APAc″ = 2-(4-(amino)piperidin-1-yl)acetic acid, NC1CCN(CC(=O)*)CC1; DOTA = O=C(O)CN1CCN(CC(=O)O)CCN(CC(=O)*)CCN(CC(=O)O)CC1; Biotin = O=C1N[C@H]2[C@H](CS[C@H]2CCCCC(=O)*)N1; PPAc = 4-carboxymethyl piperazine linker; mXylylene = c1cc(C[*:1])cc(C[*:2])c1; APAc = not defined here; Dap = NC[C@H](N)C(=O)O
Assays:
[1] = target: T1, Fc-fusion protein of human carbonic anhydrase IX (human, UniProt Q16790 38-414); experiment: SPR, captured hCAIX-Fc; t1/2 category C: 2.1-5.0 min
[2] = target: human carbonic anhydrase IX (CAIX) (human, UniProt Q16790 38-459); experiment: FACS competition, HT-29 cells, tracer 3BP-2776; pIC50 category B: 7.1-8.0
Description: (§1) CAIX-expressing human HT-29 colorectal cancer cells (DSMZ, RRID: CVCL_0320) were cultured in McCoys's 5A modified medium (Biochrom, #F1015) including 10% fetal calf serum (FCS), 2 mM L-glutamine, 100 U/ml penicillin and 100 μg/mL streptomycin. Cells were detached with Accutase (Biolegend, #423201) and washed in FACS buffer (PBS including 1% FCS). Cells were diluted in FACS buffer to a final concentration of 500.000 cells per ml. 200 μL of the cell suspension were transferred to a u-shaped non-binding 96-well plate (Greiner) and cells were washed in ice-cold FACS buffer.
(§2) When biotinylated compounds were used an additional incubation step with 1 μg/mL APC-Streptavidin (Miltenyi; #130-106-791) in 50 μL FACS buffer for 30 minutes on ice was performed.
(§3) Cells were washed twice with ice-cold FACS buffer and analyzed in an Attune NxT flow cytometer (Thermo Fisher). Median fluorescence intensities (MFI) of the APC/Cy5-channel were calculated by Attune NxT software.

[3] = target: T1, Fc-fusion protein of human carbonic …; experiment: SPR, captured hCAIX-Fc; pKD category B: 7.1-8.0
Description: (§4) Stock solutions of test compounds were prepared by dissolving each compound in DMSO. DMSO stock solution were diluted 1:1000 in Running Buffer without DMSO. […] SPR binding analyses were performed in Single Cycle Kinetic (SCK) mode at 25° C.
(§5) For each test compound, SPR raw data in the form of resonance units (RU) were plotted as sensorgrams using the Biacore™ T200 control software. The signal from the blank sensorgram was subtracted from that of the test compound sensorgram (blank corrected). The blank corrected sensorgram was corrected for baseline drift by subtracting the sensorgram of a SCK run without the test compound (running buffer only). […] Raw data and fit results were imported as text files in IDBS. The pKD value (negative decadic logarithm of dissociation constant) was calculated in the IDBS excel template.

[4] = target: human carbonic anhydrase 9 (CAIX) (human, UniProt Q16790 38-459); experiment: FACS binding assay on CAIX-expressing HT-29 cells, biotinylated compound detected with APC-streptavidin; pEC50 category (A = pEC50 >8.0)
Description: as §1, §2, §3

[5] = target: T1, Fc-fusion protein of human carbonic …; experiment: SPR, CAIX; pKD category A: >8.0
Description: as §4, §5

[6] = target: T1, Fc-fusion protein of human carbonic …; experiment: SPR, captured hCAIX-Fc; pKD category A: >8.0
[7] = target: T2, human carbonic anhydrase IV (CAIV), biotinylated (human, UniProt P22748 19-283, limits assumed, biotinylated); experiment: SPR, biotinylated CAIV captured (Biotin CAPture)
T2 construct: Bought (SinoBiological, Cat # printed 10472-1H081H); also called hCAIV-bio
From the text: as §5

[8] = target: T3, human carbonic anhydrase XII (CAXII), biotinylated (human, UniProt O43570 25-301, biotinylated); experiment: SPR, biotinylated CAXII captured (Biotin CAPture)
T3 construct: Bought (SinoBiological Cat #10617-H08H); also called hCAXII-bio
From the text: as §5

[9] = target: T4, human carbonic anhydrase XIV (CAXIV), biotinylated (human, UniProt Q9ULX7 16-290, biotinylated); experiment: SPR, biotinylated CAXIV captured (Biotin CAPture)
T4 construct: Bought (SinoBiological Cat #10458-H08H); also called hCAXIV-bio
From the text: as §5

[10] = target: T1, Fc-fusion protein of human carbonic …; experiment: SPR, captured hCAIX-Fc; t1/2 category A: >15.0 min
[11] = target: Human carbonic anhydrase IX Fc-fusion protein (CAIX, Sino Biological, 10107-H02H) (human, UniProt Q16790 38-414); experiment: SPR (Biacore T200), CAIX-Fc captured by anti-human Fc antibody, peptide as analyte, single cycle kinetics, 25 C, 1:1 Langmuir fit
Description: Surface Plasmon Resonance (SPR) studies were performed on a Biacore™ T200 using a ligand capture approach. Basically, anti-human Fc antibodies were immobilized on the surface of a sensor chip and CAIX was captured on the functionalized surface via its Fc Tag.

T3 sequence (O43570 25-301 limits assumed): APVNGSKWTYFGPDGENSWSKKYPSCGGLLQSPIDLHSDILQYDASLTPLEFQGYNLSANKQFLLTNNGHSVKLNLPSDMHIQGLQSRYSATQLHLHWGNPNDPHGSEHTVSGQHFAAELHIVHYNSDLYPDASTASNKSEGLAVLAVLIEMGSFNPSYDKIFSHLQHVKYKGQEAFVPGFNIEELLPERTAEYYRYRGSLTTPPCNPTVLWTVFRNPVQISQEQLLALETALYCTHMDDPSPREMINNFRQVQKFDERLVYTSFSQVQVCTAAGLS
T2 sequence (P22748 19-283 limits assumed): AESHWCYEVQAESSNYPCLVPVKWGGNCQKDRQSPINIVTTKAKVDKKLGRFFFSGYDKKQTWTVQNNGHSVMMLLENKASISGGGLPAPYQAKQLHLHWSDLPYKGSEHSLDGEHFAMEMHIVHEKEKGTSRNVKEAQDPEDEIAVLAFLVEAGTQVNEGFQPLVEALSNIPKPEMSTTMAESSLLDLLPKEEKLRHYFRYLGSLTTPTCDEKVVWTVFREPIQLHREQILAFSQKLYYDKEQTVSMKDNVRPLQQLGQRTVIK
T4 sequence (Q9ULX7 16-290 limits assumed): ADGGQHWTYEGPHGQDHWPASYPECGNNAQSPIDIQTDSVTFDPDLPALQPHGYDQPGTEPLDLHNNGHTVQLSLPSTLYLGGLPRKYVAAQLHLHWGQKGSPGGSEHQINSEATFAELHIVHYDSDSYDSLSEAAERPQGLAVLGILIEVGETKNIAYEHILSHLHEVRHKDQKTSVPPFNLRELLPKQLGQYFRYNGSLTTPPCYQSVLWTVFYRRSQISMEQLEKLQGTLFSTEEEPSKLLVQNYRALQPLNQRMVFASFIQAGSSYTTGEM

Binder: {DOTA-PPAc}-QCE[dP]D[Af3(PrHydr)]LTWSC-NH2 (linker 2-11 via mXylylene) [3BP-4515]
- t1/2 (half-life of the complex, SPR) [1]: 2.1 to 5 min
- pIC50 [2]: 7.1 to 8 pic50

Binder: {DOTA-PPAc}-QCE[dP]D[Af3(Hspy)]LTWSC-NH2 (linker 2-11 via mXylylene) [3BP-4789]
- pKD [3]: 7.1 to 8 pkd
- t1/2 (half-life of the complex, SPR) [1]: 2.1 to 5 min
- pIC50 [2]: 7.1 to 8 pic50

Binder: {DOTA-PPAc}-QCE[dP]D[Aph(Hsfu)]LTWSC-NH2 (linker 2-11 via mXylylene) [3BP-4813]
- pKD [3]: 7.1 to 8 pkd
- t1/2 (half-life of the complex, SPR) [1]: 2.1 to 5 min
- pIC50 [2]: 7.1 to 8 pic50

B1: 3BP-2778: H-Met-Arg-[Cys(3MeBn)-Glu-Ile-Trp-Val-Asp-Gly-Trp-Val-Asp-Cys]-Ttds-Lys(Bio)-NH2 (peptide)
peptide: H-MRCEIWVDGWVDC[Ttds(4)]K(Biotin)-NH2
modifications: linker 3-13 via mXylylene
SMILES: CC[C@H](C)[C@@H]1NC(=O)[C@H](CCC(=O)O)NC(=O)[C@@H](NC(=O)[C@H](CCCNC(=N)N)NC(=O)[C@@H](N)CCSC)CSCc2cccc(c2)CSC[C@@H](C(=O)NCCCOCCOCCOCCCNC(=O)CCC(=O)N[C@@H](CCCCNC(=O)CCCC[C@@H]2SC[C@@H]3NC(=O)N[C@@H]32)C(N)=O)NC(=O)[C@H](CC(=O)O)NC(=O)[C@H](C(C)C)NC(=O)[C@H](Cc2c[nH]c3ccccc23)NC(=O)CNC(=O)[C@H](CC(=O)O)NC(=O)[C@H](C(C)C)NC(=O)[C@H](Cc2c[nH]c3ccccc23)NC1=O
notes: Cyclic peptide, biotinylated
- pEC50 [4]: > 8 pec50

Binder: {DOTA-APAc}-VYCE[dP]DWLTWSC-NH2 (linker 3-12 via mXylylene; reading uncertain) [3BP-3583]
- pKD [5]: > 8 pkd
- pKD [6]: > 8 pkd
- pKD [7]: < 6 pkd
- pKD [8]: < 6 pkd
- pKD [9]: < 6 pkd
- t1/2 (half-life of the complex, SPR) [10]: > 15 min

Binder: {DOTA-APAc″}-VDCE[dP]DWLTW[Dap]C-NH2 (lactam 2-11; linker 3-12 via mXylylene) [3BP-4174]
- pKD [5]: > 8 pkd
- pKD [6]: > 8 pkd
- pKD [7]: < 6 pkd
- pKD [8]: < 6 pkd
- pKD [9]: < 6 pkd
- t1/2 (half-life of the complex, SPR) [10]: > 15 min

B2: DOTA-PPAc-Gln-[Cys(3MeBn)-Glu-pro-Asp-Af3(Cpsu)-Leu-Thr-Trp-Ser-Cys]-NH2 (peptide)
peptide: {DOTA-PPAc}-QCE[dP]D[Phe(3-NHCO(CH2)3SO2NH2)]LTWSC-NH2
modifications: linker 2-11 via mXylylene
notes: Synthetic cyclic peptide with uncomplexed DOTA; X stands for the non-natural residue Af3(Cpsu); also called DPI-4452; 3BP-4452
- t1/2 (dissociation half-life) [11]: 99 min

B3: natLu-DPI-4452 (LuDOTA-PPAc-Gln-[Cys(3MeBn)-Glu-pro-Asp-Af3(Cpsu)-Leu-Thr-Trp-Ser-Cys]-NH2) (peptide)
peptide: {DOTA-PPAc(3)}-QCE[dP]D[Phe(3-NHCO(CH2)3SO2NH2)]LTWSC-NH2
modifications: linker 2-11 via mXylylene; also: natLu chelated by N-terminal DOTA
notes: Lutetium complex of DPI-4452; also called 3BP-4555
- t1/2 (dissociation half-life) [11]: 123 min

B4: natGa-DPI-4452 (GaDOTA-PPAc-Gln-[Cys(3MeBn)-Glu-pro-Asp-Af3(Cpsu)-Leu-Thr-Trp-Ser-Cys]-NH2) (peptide)
peptide: {DOTA-PPAc(3)}-QCE[dP]D[Phe(3-NHCO(CH2)3SO2NH2)]LTWSC-NH2
modifications: linker 2-11 via mXylylene; also: natGa chelated by N-terminal DOTA
notes: Gallium complex of DPI-4452; also called 3BP-4529
- t1/2 (dissociation half-life) [11]: 112 min

Reference: patent US20250339569A1 (3B PHARMACEUTICALS, published 2025)
